# T1: Synthetic human type III collagen
# T1 chain: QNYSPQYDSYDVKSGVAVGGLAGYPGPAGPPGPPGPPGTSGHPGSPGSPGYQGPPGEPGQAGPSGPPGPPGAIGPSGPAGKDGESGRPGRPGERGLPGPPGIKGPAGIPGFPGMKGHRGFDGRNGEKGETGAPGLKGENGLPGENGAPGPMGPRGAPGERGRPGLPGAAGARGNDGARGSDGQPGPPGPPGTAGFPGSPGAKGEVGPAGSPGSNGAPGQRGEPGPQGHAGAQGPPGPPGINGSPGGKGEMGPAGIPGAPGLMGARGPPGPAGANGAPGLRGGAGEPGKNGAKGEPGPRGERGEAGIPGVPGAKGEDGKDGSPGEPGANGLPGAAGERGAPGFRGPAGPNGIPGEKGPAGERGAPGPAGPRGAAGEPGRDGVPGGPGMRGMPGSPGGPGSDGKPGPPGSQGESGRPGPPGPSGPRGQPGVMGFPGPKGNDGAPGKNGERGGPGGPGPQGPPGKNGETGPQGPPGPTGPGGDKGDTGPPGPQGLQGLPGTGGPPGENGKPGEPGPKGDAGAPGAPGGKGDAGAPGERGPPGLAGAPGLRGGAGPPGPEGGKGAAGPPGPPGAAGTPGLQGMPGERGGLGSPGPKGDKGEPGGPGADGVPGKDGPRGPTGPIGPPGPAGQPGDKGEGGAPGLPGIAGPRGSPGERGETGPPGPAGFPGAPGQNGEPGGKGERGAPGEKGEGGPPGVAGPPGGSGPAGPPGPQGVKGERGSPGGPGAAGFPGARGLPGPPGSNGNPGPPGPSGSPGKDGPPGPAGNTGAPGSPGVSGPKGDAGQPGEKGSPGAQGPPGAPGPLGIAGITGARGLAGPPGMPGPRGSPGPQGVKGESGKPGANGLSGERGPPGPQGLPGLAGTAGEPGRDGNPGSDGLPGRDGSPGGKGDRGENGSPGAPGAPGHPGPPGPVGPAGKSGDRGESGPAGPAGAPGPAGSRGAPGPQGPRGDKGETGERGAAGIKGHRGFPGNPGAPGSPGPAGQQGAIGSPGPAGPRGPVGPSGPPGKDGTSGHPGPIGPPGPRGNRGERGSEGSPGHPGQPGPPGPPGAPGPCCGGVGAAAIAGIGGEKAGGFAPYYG
# B1: MMP-1 (collagenase 1, fibroblast collagenase) (protein)
# chain: FVLTEGNPRWEQTHLTYRIENYTPDLPRADVDHAIEKAFQLWSNVTPLTFTKVSEGQADIMISFVRGDHRDNSPFDGPGGNLAHAFQPGPGIGGDAHFDEDERWTNNFREYNLHRVAAHELGHSLGLSHSTDIGALMYPSYTFSGDVQLAQDDIDGIQAIYGRSQNPVQPIGPQTPKACDSKLTFDAITTIRGEVMFFKDRFYMRTNPFYPEVELNFISVFWPQLPNGLEAAYEFADRDEVRFFKGNKYWAVQGQNVLHGYPKDIYSSFGFPRTVKHIDAALSEENTGKTYFFVANKYWRYDEYKRSMDPGYPKMIAHDFPGIGHKVDAVFMKDGFFYFFHGTRQYKFDPKTKRILTLQKANSWFNCRKN
# Experiments:
# [1] = target: T1, Synthetic human type III collagen
# [2] = target: Synthetic human type I collagen
# Chain of Synthetic human type I collagen (chain, as listed by the source, chain 1 of 2): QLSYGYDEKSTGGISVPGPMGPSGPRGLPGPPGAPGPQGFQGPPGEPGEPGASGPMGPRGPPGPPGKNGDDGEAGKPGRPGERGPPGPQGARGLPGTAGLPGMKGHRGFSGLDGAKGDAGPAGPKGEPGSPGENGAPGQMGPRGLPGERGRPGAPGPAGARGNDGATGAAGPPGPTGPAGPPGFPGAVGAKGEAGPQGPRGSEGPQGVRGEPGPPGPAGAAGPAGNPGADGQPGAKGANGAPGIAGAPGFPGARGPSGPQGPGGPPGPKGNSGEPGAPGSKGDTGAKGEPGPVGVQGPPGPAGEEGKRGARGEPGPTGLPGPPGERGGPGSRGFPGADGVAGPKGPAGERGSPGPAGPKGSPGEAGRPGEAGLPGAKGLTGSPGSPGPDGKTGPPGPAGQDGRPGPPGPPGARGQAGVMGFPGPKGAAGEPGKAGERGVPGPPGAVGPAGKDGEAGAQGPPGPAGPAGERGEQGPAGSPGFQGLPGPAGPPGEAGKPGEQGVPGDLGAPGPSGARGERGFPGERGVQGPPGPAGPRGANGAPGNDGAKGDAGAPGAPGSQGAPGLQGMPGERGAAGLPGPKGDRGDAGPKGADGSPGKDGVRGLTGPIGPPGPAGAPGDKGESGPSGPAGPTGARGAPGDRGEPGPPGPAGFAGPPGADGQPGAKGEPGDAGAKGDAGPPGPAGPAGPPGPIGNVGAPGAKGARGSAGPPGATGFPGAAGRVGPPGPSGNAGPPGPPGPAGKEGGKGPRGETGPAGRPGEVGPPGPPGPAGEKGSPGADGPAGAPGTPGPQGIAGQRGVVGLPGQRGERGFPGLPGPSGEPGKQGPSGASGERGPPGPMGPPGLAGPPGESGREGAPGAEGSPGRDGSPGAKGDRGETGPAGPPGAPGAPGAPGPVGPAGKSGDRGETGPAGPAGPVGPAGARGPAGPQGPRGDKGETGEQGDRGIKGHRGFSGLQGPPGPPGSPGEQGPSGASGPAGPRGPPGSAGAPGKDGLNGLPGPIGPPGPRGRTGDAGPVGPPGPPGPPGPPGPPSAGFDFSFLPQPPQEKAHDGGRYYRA
# Chain of Synthetic human type I collagen (chain, as listed by the source, chain 2 of 2): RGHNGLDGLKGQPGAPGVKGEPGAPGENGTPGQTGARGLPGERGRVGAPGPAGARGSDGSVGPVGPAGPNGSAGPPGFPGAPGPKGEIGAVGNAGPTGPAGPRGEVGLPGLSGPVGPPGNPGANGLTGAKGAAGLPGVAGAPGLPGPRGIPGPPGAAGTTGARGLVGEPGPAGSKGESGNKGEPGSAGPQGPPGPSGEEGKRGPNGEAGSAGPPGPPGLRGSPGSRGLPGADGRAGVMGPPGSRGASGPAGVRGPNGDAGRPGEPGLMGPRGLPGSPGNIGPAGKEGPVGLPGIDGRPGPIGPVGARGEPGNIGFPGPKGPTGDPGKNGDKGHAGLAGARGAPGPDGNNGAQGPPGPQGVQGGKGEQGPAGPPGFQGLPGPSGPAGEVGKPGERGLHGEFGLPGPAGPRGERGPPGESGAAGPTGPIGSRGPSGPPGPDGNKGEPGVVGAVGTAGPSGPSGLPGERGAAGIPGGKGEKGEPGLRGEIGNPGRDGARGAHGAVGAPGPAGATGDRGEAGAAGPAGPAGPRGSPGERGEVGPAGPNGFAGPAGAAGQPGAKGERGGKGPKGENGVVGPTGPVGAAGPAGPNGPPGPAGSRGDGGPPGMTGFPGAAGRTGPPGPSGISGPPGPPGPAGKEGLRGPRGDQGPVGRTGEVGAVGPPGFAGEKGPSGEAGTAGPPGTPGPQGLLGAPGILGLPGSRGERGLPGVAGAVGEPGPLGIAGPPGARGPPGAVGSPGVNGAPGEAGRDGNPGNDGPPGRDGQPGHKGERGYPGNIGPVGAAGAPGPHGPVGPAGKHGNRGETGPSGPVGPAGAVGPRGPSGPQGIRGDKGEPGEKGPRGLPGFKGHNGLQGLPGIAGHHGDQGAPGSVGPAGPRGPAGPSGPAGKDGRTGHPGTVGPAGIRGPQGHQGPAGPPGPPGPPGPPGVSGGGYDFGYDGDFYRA
protein,measurement,setting,value
B1,"cleavage of collagen (SDS-PAGE after 1, 2 and 7 days at 37 C)",[1],both synthetic human type I and type III collagen were cleaved by MMP-1 (FIG. 1A) and MMP-8 (FIG. 1B)
same,extent of degradation of collagen (SDS-PAGE),[1],Synthetic human type III collagen was degraded by MMP-1 to a greater extent than by MMP-8
same,"cleavage of collagen (SDS-PAGE after 1, 2 and 7 days at 37 C)",[2],both synthetic human type I and type III collagen were cleaved by MMP-1 (FIG. 1A) and MMP-8 (FIG. 1B)

# From patent US20060100138
